Experimental data as given in US20230303690A1 (published 2023).
Where a chain is given by its changes, count along the chain named.

T1: human LAG3 expressed on cells (human, UniProt P18627 23-525)
T1 sequence (looked up): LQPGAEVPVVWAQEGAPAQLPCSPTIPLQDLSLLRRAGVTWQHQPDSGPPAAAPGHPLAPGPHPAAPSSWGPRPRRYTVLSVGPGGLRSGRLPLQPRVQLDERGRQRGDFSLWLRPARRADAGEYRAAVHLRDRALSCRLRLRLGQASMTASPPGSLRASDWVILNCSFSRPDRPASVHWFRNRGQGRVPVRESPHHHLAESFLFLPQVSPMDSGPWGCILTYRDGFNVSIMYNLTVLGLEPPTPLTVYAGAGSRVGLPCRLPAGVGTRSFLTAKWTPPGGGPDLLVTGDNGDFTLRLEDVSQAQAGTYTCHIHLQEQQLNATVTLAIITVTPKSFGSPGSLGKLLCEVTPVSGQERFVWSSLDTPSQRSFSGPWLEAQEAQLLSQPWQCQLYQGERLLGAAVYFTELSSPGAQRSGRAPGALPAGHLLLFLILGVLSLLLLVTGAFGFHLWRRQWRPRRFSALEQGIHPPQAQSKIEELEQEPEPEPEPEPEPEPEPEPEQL

T2: LAG3 Protein, Human, Recombinant (His Tag) (Sino Biological Catalog No. 16498-H08H) (human, UniProt P18627 23-450)
T2 construct: Bought protein; also called hLAG3-His; LAG3-His; not shown: His tag
T2 sequence (looked up): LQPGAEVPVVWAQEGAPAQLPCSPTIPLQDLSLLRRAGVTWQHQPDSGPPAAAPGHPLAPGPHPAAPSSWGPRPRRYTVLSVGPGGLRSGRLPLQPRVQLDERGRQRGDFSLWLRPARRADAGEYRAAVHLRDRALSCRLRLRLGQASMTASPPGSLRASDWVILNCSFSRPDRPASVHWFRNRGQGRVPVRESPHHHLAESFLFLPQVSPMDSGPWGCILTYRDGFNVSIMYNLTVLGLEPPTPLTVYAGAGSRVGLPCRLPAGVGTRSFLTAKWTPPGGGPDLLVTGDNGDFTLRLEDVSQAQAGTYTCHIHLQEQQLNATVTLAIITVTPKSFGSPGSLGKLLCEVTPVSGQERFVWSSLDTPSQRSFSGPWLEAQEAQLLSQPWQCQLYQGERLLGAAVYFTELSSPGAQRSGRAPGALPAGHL

B1: sdAb No. 1 (VHH)
VHH: QLQLVESGGGLVQAGGSLRLSCAASGFTFDDYAIGWFRQAPGKEREGVSCIRSSDGSTYYADSVKGRFTISSDNAKNTVYLQMNSLKPEDTAVYYCAKDNYSDCRGPYHYWGQGTQVTVSS
notes: the tested form was captured by anti-human Fc, its Fc is not described; also called sdAb 1; not shown: Fc part implied by anti-human Fc capture
B2: sdAb No. 73 (VHH)
VHH: QVQLVESGGGLVQPGGSLKLSCTASGFTLDYYAIAWFRQAPGKEREAVSCISSSDGSTRYADSVKGRFTISRDNAKNTVYLQMNSLKPEDTAVYYCAADPYGDCRGPYDYWGQGTQVTVSS
notes: Fc not described; also called sdAb 73; not shown: Fc part implied by anti-human Fc capture
B3: sdAb No. 20 (VHH)
VHH: QVQLVESGGGLVQPGGSLRLSCAASGLTLDGYAVGWFRQAPGKDREGLSCISGSDGSTHYLDSVKGRFTISRDNAKSTMALQMNSLQFGDTAIYYCAARRGSCSGSWTYWGQGTQVTVSS
notes: Fc of the tested form not described; also called sdAb 20; not shown: Fc part implied by anti-human Fc capture
B4: sdAb No. 21 (VHH)
VHH: B3 VHH with V2L, V34I, G35A, D44E, S54T, A75G, S77N, V116I
notes: Fc of the tested form not described; also called sdAb 21; not shown: Fc part implied by anti-human Fc capture

Assays:
[1] = biological target: T1, human LAG3 expressed on cells; assay: cell-based or functional assay
[2] = biological target: T1, human LAG3 expressed on cells; assay: cell-based or functional assay; remark: listed apart in the source
[3] = biological target: T2, LAG3 Protein, Human, Recombinant (His …); assay: SPR binning on LAG3-His; competitor 1
Experimental: (§1) The chip surface was regenerated after each cycle with 25 mM NaOH followed by HBS-EP wash provided in the kit.

[4] = biological target: T2, LAG3 Protein, Human, Recombinant (His …); assay: SPR binning on LAG3-His; competitor 17
Experimental: as §1

[5] = biological target: T2, LAG3 Protein, Human, Recombinant (His …); assay: SPR binning on LAG3-His; competitor 18
Experimental: as §1

[6] = biological target: T2, LAG3 Protein, Human, Recombinant (His …); assay: SPR binning on LAG3-His; competitor 20
Experimental: as §1

[7] = biological target: T2, LAG3 Protein, Human, Recombinant (His …); assay: SPR binning on LAG3-His; competitor 21
Experimental: as §1

[8] = biological target: T2, LAG3 Protein, Human, Recombinant (His …); assay: SPR binning on LAG3-His; competitor 24
Experimental: as §1

[9] = biological target: T2, LAG3 Protein, Human, Recombinant (His …); assay: SPR binning on LAG3-His; competitor 25
Experimental: as §1

[10] = biological target: T2, LAG3 Protein, Human, Recombinant (His …); assay: SPR binning on LAG3-His; competitor 27
Experimental: as §1

[11] = biological target: T2, LAG3 Protein, Human, Recombinant (His …); assay: SPR binning on LAG3-His; competitor 37
Experimental: as §1

[12] = biological target: T2, LAG3 Protein, Human, Recombinant (His …); assay: SPR binning on LAG3-His; competitor 73
Experimental: as §1

[13] = biological target: T2, LAG3 Protein, Human, Recombinant (His …); assay: SPR binning on LAG3-His; competitor BMS
Experimental: as §1

[14] = biological target: T2, LAG3 Protein, Human, Recombinant (His …); assay: SPR (Biacore), sdAb captured by anti-human Fc, LAG3-His analyte
Experimental: The binding of the single domain antibodies to recombinant human LAG3 protein (rhLAG3) was examined by Biacore™ assay. […] The coating was carried out according to the manufacturer’s instructions accompanying the kit (Catalog No. BR-1008-39, GE). […] The chip surface was regenerated after each cycle with 25 mM NaOH followed by HBS-EP wash provided in the kit.

Binder | IL-2, % of BMS, at 0.005080526 ug/mL [1] [%] | IL-2, % of BMS, at 0.015241579 ug/mL [1] [%] | IL-2, % of BMS, at 0.045724737 ug/mL [1] [%] | IL-2, % of BMS, at 0.137174211 ug/mL [1] [%] | IL-2, % of BMS, at 0.411522634 ug/mL [1] [%] | IL-2, % of BMS, at 1.234567901 ug/mL [1] [%] | IL-2, % of BMS, at 3.703703704 ug/mL [1] [%] | IL-2, % of BMS, at 11.11111111 ug/mL [1] [%] | IL-2, % of BMS, at 33.33333333 ug/mL [1] [%] | IL-2, % of BMS, at 100 ug/mL [1] [%] | EC50 for IL-2 rescue, hLAG3 Jurkat T system [2] [nM] | Efficacy (IL-2 production, BMS = 100%) [2] [%] | RU [3] [RU] | RU [4] [RU] | RU [5] [RU] | RU [6] [RU] | RU [7] [RU] | RU [8] [RU] | RU [9] [RU] | RU [10] [RU] | further results
B1 | 8.4 | 8.77 | 6.07 | 14.2 | 14.8 | 30.7 | 46.4 | 45.7 | 54.4 | 51.3 | 15.7 | 41.4 | 22 | -6.9 | -10.7 | -14.8 | -114 | -10.6 | 30 | 4.9 | RU [11]: -8.4 RU; RU [12]: -11.6 RU; RU [13]: 37.4 RU; koff [14]: 5.05e-08 s⁻¹; kon [14]: 4.77e+06 M⁻¹ s⁻¹
B2 | 0.495 | 3.55 | 3.63 | 6.64 | 15.5 | 19.5 | 24.5 | 30.6 | 36.8 | 41 | 42.6 | 56.4 | -7.3 | -12.5 | -10.6 | -117 | -10.2 | -9.6 | 9.8 | -2.2 | RU [11]: -6.9 RU; RU [12]: -9.7 RU; RU [13]: 27 RU; Kd [14]: 0.182 nM; koff [14]: 0.000975 s⁻¹; kon [14]: 5.35e+06 M⁻¹ s⁻¹
B3 | 8.49 | 9.36 | 3.55 | 6.06 | 14.7 | 20.3 | 38 | 33 | 34.5 | 35.1 | 14.2 | 26.9 | -9.9 | -7.8 | -12 | -24.2 | -20.1 | -209 | 205 | -16.6 | RU [11]: -19.3 RU; RU [12]: -21.8 RU; RU [13]: 23.3 RU; Kd [14]: 0.252 nM; koff [14]: 0.000429 s⁻¹; kon [14]: 1.71e+06 M⁻¹ s⁻¹
B4 | 10.5 | 13.7 | 13.4 | 21.7 | 24.6 | 27.7 | 32.8 | 31.7 | 38.9 | 35 | 3.41 | 31 | -4.7 | -12 | -10.3 | -12.6 | -19.1 | -18.9 | 179 | -14.8 | RU [11]: -17.3 RU; RU [12]: -19.5 RU; RU [13]: 194 RU; Kd [14]: 0.278 nM; koff [14]: 0.00178 s⁻¹; kon [14]: 6.41e+06 M⁻¹ s⁻¹
